Measurements as given in patent US20210107969A1 (Johns Hopkins, published 2021).

Legend:
biotinylated huPD-L1 = target: T1, biotinylated huPD-L1 (human, UniProt Q9NZQ7 19-238, limits assumed, biotinylated (site not stated)); experiment: ELISA, antibody coated, biotinylated huPD-L1 detected by avidin-HRP
T1 construct: it is treated here as the same reagent; also called biotinylated PD-L1

human TGF-β1 = target: T2, human TGF-β1 (human, UniProt P01137 279-390, biotinylated in the FIG. 8C ELISA; unlabelled rhTGF-β1 in FIG. 9B/9C); experiment: ELISA, protein coated, biotinylated huTGFb1 detected by avidin-HRP
T2 construct: also called biotinylated huTGFb1; rhTGF-β1
T2 sequence (P01137 279-390 limits assumed): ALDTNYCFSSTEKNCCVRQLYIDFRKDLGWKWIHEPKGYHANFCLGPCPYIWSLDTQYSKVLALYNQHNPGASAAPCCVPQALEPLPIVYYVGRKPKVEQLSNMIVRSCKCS

T1 sequence (Q9NZQ7 19-238 limits assumed): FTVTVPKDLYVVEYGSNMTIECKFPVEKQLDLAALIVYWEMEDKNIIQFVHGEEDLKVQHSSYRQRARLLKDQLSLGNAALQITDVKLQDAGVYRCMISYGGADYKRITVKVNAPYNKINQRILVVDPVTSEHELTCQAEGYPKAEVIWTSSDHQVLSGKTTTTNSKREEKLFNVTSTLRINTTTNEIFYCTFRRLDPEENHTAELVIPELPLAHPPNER

B1: anti-PD1 (nivolumab) (antibody, human IgG4 S228P, kappa, V domains shown)
VH: QVQLVESGGGVVQPGRSLRLDCKASGITFSNSGMHWVRQAPGKGLEWVAVIWYDGSKRYYADSVKGRFTISRDNSKNTLFLQMNSLRAEDTAVYYCATNDDYWGQGTLVTVSS
VL: EIVLTQSPATLSLSPGERATLSCRASQSVSSYLAWYQQKPGQAPRLLIYDASNRATGIPARFSGSGSGTDFTLTISSLEPEDFAVYYCQQSSNWPRTFGQGTKVEIKR
notes: Negative control in the PD-L1 ELISA
Biotinylated huPD-L1
  binding result: no binding

B2: anti-VEGF (bevacizumab) (antibody, human IgG1, kappa, V domains shown)
VH: EVQLVESGGGLVQPGGSLRLSCAASGYTFTNYGMNWVRQAPGKGLEWVGWINTYTGEPTYAADFKRRFTFSLDTSKSTAYLQMNSLRAEDTAVYYCAKYPHYYGSSHWYFDVWGQGTLVTVSS
VL: DIQMTQSPSSLSASVGDRVTITCSASQDISNYLNWYQQKPGKAPKVLIYFTSSLHSGVPSRFSGSGSGTDFTLTISSLQPEDFATYYCQQYSTVPWTFGQGTKVEIKR
Human TGF-β1
  binding result: no binding
